{
  "source": "patent US9328334B2",
  "about": "“Luciferase derived from lucidina accensa” (OLYMPUS CORPORATION, priority 2011, dated 2016)",
  "key": {"[1]": {"experiment": "Measurement of light emission spectra of purified luciferase under various pH environments", "assay_type": "biochemical", "conditions": "light emission spectra at various pH", "procedure": "With use of LumiFlSpectroCapture (manufactured by ATTO Corporation) as an apparatus for measurement, to a solution of 0.1 M citric acid/0.1 M Na2HPO4 buffer (pH 5.5 to 8.0) containing 1 mM of D-luciferin, 2 mM of ATP and 4 mM of MgCl2 the purified enzyme was added at a final concentration of 1 μg/mL, and after 15 seconds of addition of the enzyme luminescence spectra was measured. The measurement results were illustrated in FIG. 1.\nAfter that, each of thus-prepared genes (SEQ ID NOs: 38 and 39) was introduced into pRSET-B vector according to the same method as the Example 2. This vector was transformed to E. coli JM109 (DE3) strain to express the mutant luciferase. Subsequently, the mutant luciferase was purified from E. coli. In addition, under various pH environments, the light emission spectrum was measured according to the same method as the Example 2 from a light emitting reaction catalyzed by the mutant luciferase."}, "[2]": {"test_system": "E. coli JM109 (DE3) strain", "experiment": "Temperature dependency of luminescence intensity: E. coli colonies heat treated at 55° C., CCD image (Example 7)", "assay_type": "cell-based, Escherichia coli", "conditions": "55° C. for 1 hour, 0.5 mM D-luciferin spray", "procedure": "Each of the wild type luciferase gene and two kinds of the mutant gene obtained in the Example 6 was introduced into pRSET-B vector and transformed to E. coli JM109 (DE3) strain to form a colony. Thus-obtained colony was cultured and applied on a LB agar medium to form again the colony for 24 hours. After that, it was subjected to the heat treatment at 55° C. for 1 hour and kept at room temperature for 1 hour. It was then sprayed with a liquid containing 0.5 mM D-luciferin and a photographic image thereof was taken for 1 min by using a CCD camera (trade name: DP70, manufactured by Olympus Corporation)."}},
  "note": "Entries after “also recorded” stand apart in the source; their conditions may differ.",
  "data": [
    {"molecule": "mutant luciferase (E322W): L. accensa luciferase mutant with E322W, amino acid sequence SEQ ID NO: 36 (protein, listed as Lucidina accensa) MEEDKNILRGPAPFYPLEDGTAGEQLHRAMKRYALIPGTIAFTDAHAGVNITYSEYFEMACRLAESLKRYGLGLQHRIVVCSENSLQFFMPVVGALFIGVGVAPANDIYNERELLNSMTISQPTLVFCSRKGLQKILNVQKKLPVIQKIIILDTKEDYMGFQSMYSFVDSQLPVGFNEYDYVPDSFDRDQATALIMNSSGSTGLPKGVELNHTSVCVRFSHCRDPVYGNQIIPDTAILSVIPFHHGFGMFTTLGYLICGFRVVLMYRFEEELFLRSLQDYKIQSALLVPTLFSFFAKSTLIDKYDLSNLHEIASGGAPLAKWVGEAVAKRFNLRGIRQGYGLTETTSAVIITPEGDDKPGAVGKVVPFFSAKVVDLDTGKTLGVNQRGELCLKGPMIMKGYVNNPEATNALIDKDGWLHSGDISYWDEDGHFFIVDRLKSLIKYKGYQVPPAELESILLQHPFIFDAGVAGIPDDEAGELPAAVVVLEEGKTMTEKEIMDYVAGQVTTAKRLRGGVVFVDEVPKGLTGKIDARKIREILVKVKKTKSKL", "values": [
      {"measurement": "pH environment giving the highest luminescence intensity", "setting": "[1]", "result": 8.0, "unit": "pH"},
      {"measurement": "light emission compared to the wild type luciferase at 55° C.", "setting": "[2]", "result": "stronger light emission; also recorded: higher luminescence intensity"}
    ]}
  ]
}
